# Laboratory results: publication PMC6061939 (Biochemical and biophysical research communications, 2017)
# T1: Saccharomyces cerevisiae Mmm1Δ (SMP domain) (Saccharomyces cerevisiae, UniProt P41800 194-409)
# T1 sequence (looked up): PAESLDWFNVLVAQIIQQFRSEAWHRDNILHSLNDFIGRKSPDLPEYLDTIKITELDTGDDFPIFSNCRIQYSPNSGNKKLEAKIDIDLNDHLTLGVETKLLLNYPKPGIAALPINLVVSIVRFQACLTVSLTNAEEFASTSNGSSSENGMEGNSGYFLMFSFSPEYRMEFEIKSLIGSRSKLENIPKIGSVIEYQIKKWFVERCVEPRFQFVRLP
# B1: Saccharomyces cerevisiae Mdm12 (natural protein)
# chain: MSFDINWSTLESDNRLNDLIRKHLNSYLQNTQLPSYVSNLRVLDFDLGKVGPAITLKEITDPLDEFYDSIREEADQETEENNDNKEDSEHICPDRTIANHEGPKDDFEAPVVMPSPNDIQFLLEVEYKGDLLVTIGADLVLNYPVEKFMTLPVKLSISDIGLHSLCIVACLSKQLFLSFLCDVSDPALDDNQTVLDPKGPILAATKPLERISIVRSMKIETEIGEQYQGQGSVLRSVGELEQFLFTIFKDFLRKELAWPSWINLDFNDGDE
# Key:
# Assay in all cases: SEC
# [1] = target: Dictyostelium discoideum Mdm12 (residues S2-N202) (Dictyostelium discoideum)
# [2] = target: Saccharomyces cerevisiae Mmm1Δ (SMP domain) (Saccharomyces cerevisiae) (UniProt P41800)
# [3] = target: T1, Saccharomyces cerevisiae Mmm1Δ (SMP …)
molecule,measurement,setting,value
Dictyostelium discoideum Mdm12 (residues S2-N202) (natural protein),stoichiometry N,[1],2
Saccharomyces castellii Mdm12 (residues S2-E244) (natural protein),stoichiometry N,[2],1
B1,stoichiometry N,[3],1
